What was measured:
Human Factor XIa (human) [1] = target: Human Factor XIa (human) (UniProt P03951)
[2] = target: tissue factor-Factor VIIa (human) (UniProt P13726)
[3] = target: Human plasma kallikrein (human) (UniProt P03952)
Human Factor XIa (human) [4] = target: Human Factor XIa (human) (UniProt P03951); assay: enzyme inhibition of FXIa, chromogenic substrate, fit to the tight-binding equation (apparent Ki*)
Human Factor XIa (human) [5] = target: Human Factor XIa (human) (UniProt P03951); remark: listed apart in the source

APPI, Kunitz protease inhibitor domain of the Alzheimer's amyloid β-protein precursor
fraction of remaining proteolytic activity at 100 nM inhibitor (fraction of uninhibited rate) (Human Factor XIa (human) [1]): 0.03 | fraction of remaining proteolytic activity at 100 nM inhibitor (fraction of uninhibited rate) [2]: 0.6 | fraction of remaining proteolytic activity at 100 nM inhibitor (fraction of uninhibited rate) [3]: 0.81 | Ki (Human Factor XIa (human) [4]): 2.7 nM | fold prolongation of the clotting time of normal human plasma, APTT assay (Human Factor XIa (human) [5]): 2.8 fold

Reference: US5780265
